Measured values from US20210395344A1 (TWIST BIOSCIENCE, published 2021).
Positions count from the first letter of the chain named.

B1: 1-29 (antibody, V domains shown)
VH: EVQLLESGGGLVQPGGSLRLSCAASGFTFSSYAMYWVRQAPGKGLEWVSAISGSAGSTYYADSVKGRFTISRDNSKNTLYLQMNSLRAEDTAVYYCARDTNDFWSGYSIFDPWGQGTLVTVSS
VL: QSALTQPASVSGSPGQSITISCTGTSSDIGSYNLVSWYQQHPGKAPKLMIYEGTKRPSGVSNRFSGSKSGNTASLTISGLQAEDEADYYCCSYAGSRTYVFGGGTKLTVL
notes: also called variant 1-29
B2: 1-2 (antibody, V domains shown)
VH: EVQLLESGGGLVQPGGSLRLSCAASGFTFSSQAMSWVRQAPGKGLEWVSAISGSGGGTYYADSVKGRFTISRDNSKNTLYLQMNSLRAEDTAVYYCAKDRRFGEFDPWGQGTLVTVSS
VL: QSALTQPASVSGSPGQSITISCTGTSSGVGSYNLVSWYQQHPGKAPKLMIYEGIKRPSGVSNRFSGSKSGNTASLTISGLQAEDEADYYCCSYAGSSSFVVFGGGTKLTVL
notes: also called variant 1-2
B3: 1-27 (antibody, V domains shown)
VH: EVQLLESGGGLVQPGGSLRLSCAASGFTFSSYAMTWVRQAPGKGLEWVSAISGSGGGTYYADSVKGRFTISRDNSKNTLYLQMNSLRAEDTAVYYCASSSSWQFDYWGQGTLVTVSS
VL: B2 VL with G28Y, S31H, I54S, K55R, S97Y, S98T, F99H, V100Y
notes: also called variant 1-27
B4: 1-31 (antibody, V domains shown)
VH: EVQLLESGGGLVQPGGSLRLSCAASGFTFSSYAMNWVRQAPGKGLEWVSAISGSGGSTFYADSVKGRFTISRDNSKNTLYLQMNSLRAEDTAVYYCTRPPYGDYGDYWGQGTLVTVSS
VL: B2 VL with G28D, S31K, I54S, K55Q, S97R, S98T, F99P
notes: also called variant 1-31
B5: 1-30 (antibody, V domains shown)
VH: B4 VH with N35T
VL: B2 VL with S27R, G28D, I54T, S97R, S98T, F99P
notes: also called variant 1-30
B6: 1-3 (antibody, V domains shown)
VH: B2 VH
VL: B2 VL with T25I, G28D, I54T
notes: also called variant 1-3
B7: 1-5 (antibody, V domains shown)
VH: B2 VH
VL: B2 VL with G53A, I54S, S97Y, S98T, V100A
notes: also called variant 1-5
B8: 1-4 (antibody, V domains shown)
VH: B2 VH
VL: B2 VL with G28D, S31T, I54S, K55Q
notes: also called variant 1-4
B9: 1-49 (antibody, V domains shown)
VH: EVQLLESGGGLVQPGGSLRLSCAASGFTFSSYAMYWVRQAPGKGLEWVSAISGSAGSTYYADSVKGRFTISRDNSKNTLYLQMNSLRAEDTAVYYCARDTNDFWGQGTLVTVSS
VL: B1 VL
notes: also called variant 1-49
B10: 1-48 (antibody, V domains shown)
VH: B1 VH with Y32H, R98H, N101K, S108C
VL: B1 VL
notes: also called variant 1-48
B11: 1-35 (antibody, V domains shown)
VH: EVQLLESGGGLVQPGGSLRLSCAASGFTFSNYAMSWVRQAPGKGLEWVSDISGSGGSTYYADSVKGRFTISRDNSKNTLYLQMNSLRAEDTAVYYCVKGTIPIFGVIRSAFDYWGQGTLVTVSS
VL: B2 VL with G28D, N33S, I54T, S97Y, F99Y
notes: also called variant 1-35
B12: 1-20 (antibody, V domains shown)
VH: EVQLLESGGGLVQPGGSLRLSCAASGITFSSYAMSWVRQAPGKGLEWVSGISGSGGSTYYADSVKGRFTISRDNSKNTLYLQMNSLRAEDTAVYYCANHGSGTIFGVVIAKYYFDYWGQGTLVTVSS
VL: B2 VL with G28D, S31H, I54T
notes: also called variant 1-20
B13: 1-12 (antibody, V domains shown)
VH: B12 VH with N98K
VL: B2 VL with G28D, S31H, I54T
notes: also called variant 1-12
B14: 1-23 (antibody, V domains shown)
VH: EVQLLESGGGLVQPGGSLRLSCAASGFTFSSYAISWVRQAPGKGLEWVSIISGSGGSTYYADSVKGRFTISRDNSKNTLYLQMNSLRAEDTAVYYCAREGYRDYLWYFDLWGQGTLVTVSS
VL: QSALTQPASVSGSPGQSITISCTGTSNDVGSYNLVSWYQQHPGKAPKLMIYEGNKRPSGVSNRFSGSKSGNTASLTISGLQAEDEADYYCCSYAGSYTVFGGGTKLTVL

biological target: T1, S1-Fc (SARS-CoV-2, UniProt P0DTC2 16-685); assay: phage ELISA

Row | Binder | ELISA fold over background
1 | B1 | 1 fold over background
2 | B2 | 1.7 fold over background
3 | B3 | 1.3 fold over background
4 | B4 | 15.7 fold over background
5 | B5 | 5.6 fold over background
6 | B6 | 1.5 fold over background
7 | B7 | 1.2 fold over background
8 | B8 | 0.9 fold over background

biological target: T2, COVID S1 RBM Fc fusion (Antigen 2) (SARS-CoV-2, UniProt P0DTC2 437-508); assay: phage ELISA
T2 construct: domain: RBM

Row | Binder | ELISA fold over background
9 | B1 | 0.9 fold over background
10 | B9 | 0.8 fold over background
11 | B10 | 0.8 fold over background
12 | B2 | 1.7 fold over background
13 | B3 | 1.6 fold over background
14 | B4 | 1.2 fold over background
15 | B11 | 1.6 fold over background
16 | B12 | 0.8 fold over background
17 | B5 | 1.4 fold over background
18 | B6 | 1.5 fold over background
19 | B7 | 1.4 fold over background
20 | B8 | 1.1 fold over background

biological target: T1, S1-Fc; assay: phage ELISA; remark: another data set of the same source

Row | Binder | ELISA fold over background
21 | B1 | 1 fold over background
22 | B2 | 1.7 fold over background
23 | B3 | 1.3 fold over background
24 | B4 | 15.7 fold over background
25 | B5 | 5.6 fold over background
26 | B6 | 1.5 fold over background
27 | B7 | 1.2 fold over background
28 | B8 | 0.9 fold over background

biological target: T2, COVID S1 RBM Fc fusion (Antigen 2); assay: phage ELISA; remark: another data set of the same source

Row | Binder | ELISA fold over background
29 | B1 | 0.9 fold over background
30 | B9 | 0.8 fold over background
31 | B10 | 0.8 fold over background
32 | B2 | 1.7 fold over background
33 | B3 | 1.6 fold over background
34 | B4 | 1.2 fold over background
35 | B11 | 1.6 fold over background
36 | B12 | 0.8 fold over background
37 | B5 | 1.4 fold over background
38 | B6 | 1.5 fold over background
39 | B7 | 1.4 fold over background
40 | B8 | 1.1 fold over background

biological target: T3, SARS-CoV-2 S1 (antigen of the Carterra SPR kinetics) (SARS-CoV-2, UniProt P0DTC2 16-685); assay: Carterra SPR

Row | Binder | koff | kon
41 | B1 | 0.00197 s⁻¹ | 535 M⁻¹ s⁻¹
42 | B2 | 0.0272 s⁻¹ | 1580 M⁻¹ s⁻¹
43 | B3 | 0.00285 s⁻¹ | 227000 M⁻¹ s⁻¹
44 | B4 | 0.000762 s⁻¹ | 20500 M⁻¹ s⁻¹
45 | B5 | 0.00164 s⁻¹ | 43900 M⁻¹ s⁻¹
46 | B6 | 0.304 s⁻¹ | 1.42e+06 M⁻¹ s⁻¹
47 | B7 | 0.054 s⁻¹ | 2150 M⁻¹ s⁻¹
48 | B8 | 0.124 s⁻¹ | 42000 M⁻¹ s⁻¹

biological target: T3, SARS-CoV-2 S1 (antigen of the Carterra …); assay: Carterra SPR; remark: another data set of the same source

Row | Binder | Kd | koff | kon
49 | B1 | 3.68 µM | 0.00197 s⁻¹ | 535 M⁻¹ s⁻¹
50 | B2 | 17.2 µM | 0.0272 s⁻¹ | 1580 M⁻¹ s⁻¹
51 | B3 | 0.0125 µM | 0.00285 s⁻¹ | 227000 M⁻¹ s⁻¹
52 | B4 | 0.0372 µM | 0.000762 s⁻¹ | 20500 M⁻¹ s⁻¹
53 | B13 | 0.372 µM |  | 
54 | B5 | 0.0372 µM | 0.00164 s⁻¹ | 43900 M⁻¹ s⁻¹
55 | B6 | 0.215 µM | 0.304 s⁻¹ | 1.42e+06 M⁻¹ s⁻¹
56 | B7 | 25.2 µM | 0.054 s⁻¹ | 2150 M⁻¹ s⁻¹
57 | B8 | 2.95 µM | 0.124 s⁻¹ | 42000 M⁻¹ s⁻¹

biological target: T4, SARS-CoV-2 Spike Glycoprotein S1 (subunit 1) (SARS-CoV-2, UniProt P0DTC2 16-685); assay: screening phage ELISA, mean
T4 construct: also called S1 Monomer; SARS-CoV-2 S1

Row | Binder | ELISA (Avg)
58 | B14 | 23.1

biological target: T4, SARS-CoV-2 Spike Glycoprotein S1 …; assay: screening phage ELISA, mean; remark: another data set of the same source

Row | Binder | ELISA (Avg)
59 | B14 | 23.1
